Source: patent US20150098945A1 (Daiichi Sankyo, published 2015)

Legend:
[1] = target: T1, mouse ROBO4 (pCI-mROBO4-transfected HEK293 cells) (mouse, UniProt Q8C310 28-1012); test: flow cytometry (FC500), HEK293 cells transfected with pCI-mROBO4, FITC goat anti-human IgG Fc; control histogram IgG (human IgG)
T1 sequence: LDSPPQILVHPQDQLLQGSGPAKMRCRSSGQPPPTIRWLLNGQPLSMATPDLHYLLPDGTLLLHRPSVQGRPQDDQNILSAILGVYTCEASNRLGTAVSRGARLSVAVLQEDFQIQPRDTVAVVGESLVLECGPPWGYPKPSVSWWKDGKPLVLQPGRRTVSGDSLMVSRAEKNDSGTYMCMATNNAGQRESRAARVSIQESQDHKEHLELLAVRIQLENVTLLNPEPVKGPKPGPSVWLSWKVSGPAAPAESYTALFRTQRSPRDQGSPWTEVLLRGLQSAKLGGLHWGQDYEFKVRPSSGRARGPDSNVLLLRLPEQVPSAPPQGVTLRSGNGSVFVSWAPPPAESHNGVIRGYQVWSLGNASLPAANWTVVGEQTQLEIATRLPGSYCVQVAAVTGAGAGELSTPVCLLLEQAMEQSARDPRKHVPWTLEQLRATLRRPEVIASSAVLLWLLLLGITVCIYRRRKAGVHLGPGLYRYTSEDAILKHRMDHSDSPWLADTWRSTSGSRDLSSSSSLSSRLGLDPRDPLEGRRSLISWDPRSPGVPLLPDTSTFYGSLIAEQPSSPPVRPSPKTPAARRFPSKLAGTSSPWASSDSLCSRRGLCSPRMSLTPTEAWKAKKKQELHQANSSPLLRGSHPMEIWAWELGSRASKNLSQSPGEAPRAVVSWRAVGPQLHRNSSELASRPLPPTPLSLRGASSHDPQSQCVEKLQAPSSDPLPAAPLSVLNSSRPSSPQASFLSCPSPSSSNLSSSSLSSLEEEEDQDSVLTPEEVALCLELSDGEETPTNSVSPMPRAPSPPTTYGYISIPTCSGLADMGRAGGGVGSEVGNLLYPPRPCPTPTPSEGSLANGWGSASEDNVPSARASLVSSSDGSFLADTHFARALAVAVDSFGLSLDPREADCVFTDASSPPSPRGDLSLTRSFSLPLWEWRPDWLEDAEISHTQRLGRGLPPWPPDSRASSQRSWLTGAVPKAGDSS

[2] = target: T2, N-terminal FLAG-tagged cynomolgus monkey ROBO4, cynoROBO4-1 (pCI-FLAG-cynoROBO4-1) (cynomolgus monkey, UniProt Q8WZ75 28-1007 (human entry)); test: flow cytometry (FC500), HEK293 cells transfected with pCI-FLAG-cynoROBO4-1, antibody at 10 µg/mL, FITC goat anti-human IgG Fc; control histogram IgG (human IgG)
T2 chain: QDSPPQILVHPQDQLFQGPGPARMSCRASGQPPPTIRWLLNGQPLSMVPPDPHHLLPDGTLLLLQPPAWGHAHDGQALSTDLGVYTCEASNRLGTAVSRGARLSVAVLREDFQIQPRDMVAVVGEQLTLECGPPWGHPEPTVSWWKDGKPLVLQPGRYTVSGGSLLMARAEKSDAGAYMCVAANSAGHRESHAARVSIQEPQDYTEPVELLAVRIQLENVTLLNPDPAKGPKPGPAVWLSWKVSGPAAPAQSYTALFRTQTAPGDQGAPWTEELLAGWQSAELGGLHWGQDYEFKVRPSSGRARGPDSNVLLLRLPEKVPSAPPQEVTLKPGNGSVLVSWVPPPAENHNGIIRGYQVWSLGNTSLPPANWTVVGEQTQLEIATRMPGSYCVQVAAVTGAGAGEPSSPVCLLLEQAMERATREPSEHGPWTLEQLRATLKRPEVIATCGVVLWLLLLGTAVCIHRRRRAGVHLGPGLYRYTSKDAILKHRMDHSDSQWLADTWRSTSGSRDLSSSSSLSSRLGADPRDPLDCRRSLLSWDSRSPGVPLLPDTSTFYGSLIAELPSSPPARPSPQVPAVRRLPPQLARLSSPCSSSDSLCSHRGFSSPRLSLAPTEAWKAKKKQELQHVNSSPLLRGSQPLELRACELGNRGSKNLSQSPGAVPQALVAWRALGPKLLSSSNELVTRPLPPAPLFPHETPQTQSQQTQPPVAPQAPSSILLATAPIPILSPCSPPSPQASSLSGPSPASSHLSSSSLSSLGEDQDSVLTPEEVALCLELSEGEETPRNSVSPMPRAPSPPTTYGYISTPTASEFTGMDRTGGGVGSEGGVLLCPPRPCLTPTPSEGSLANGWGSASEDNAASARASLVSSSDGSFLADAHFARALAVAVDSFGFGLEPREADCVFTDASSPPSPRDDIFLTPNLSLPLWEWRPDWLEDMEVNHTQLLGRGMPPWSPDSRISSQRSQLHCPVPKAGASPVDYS

binding result [1]: no binding (tested: 10 µg/mL) | binding result [2]: binds
B1: humanized MAb1 antibody H-2140 (antibody, human IgG2, kappa, V domains shown)
VH: EVQLVESGGGLVQPGGSLRLSCAASGFTFSTYAMSWVRQAPGKRLEWVATISQGGTYTYYPDSVKGRFTISRDNAKNTLYLQMNSLRAEDTAVYYCARLIYYDYLDYWGQGTLVTVSS
VL: DIVMTQSPLSLPVTLGEPASISCRSSQSLENSNGNTYLNWYLQKPGQSPQLLIYRVSNRFSGVPDRFSGSGSGTDFTLKISRVEAEDVGVYYCLQVTHVPWTFGPGTKVDIKR
notes: Human IgG2 / kappa constant regions; also called hMAb1-H4-type heavy chain + hMAb1-L1-type light chain
